# Source: patent US7754684B2, “Macromolecular platinum chelates” (priority 2003, dated 2010)
# What was measured:
# [1] = Platinum release from PBS (percent small Pt species released from polymer-platinum conjugate); assay type: physicochemical; details: PBS at 37° C.
# Method: The compound tested comprised a poly(N-(2-hydroxypropyl)methacrylamide (90%)-co-(N-(linker)-Pt complex)methacrylamide (10%)) polymer and either cis-diammine or 1R,2R-diaminocyclohexane (DACH) as the stable ligands/chelate of the Pt complex. The leaving-ligand comprised an N,O bidentate ligand with amidoaspartate (Asp) or amidomalonate (Ama).
# The percent of small platinum species released over time was measured by dissolving about 30 mg of the polymer-platinum conjugate in 15 mL of phosphate buffered saline (10 mM phosphate, 123 mM Cl^−) and incubating the solution at 37° C. in a water bath. At indicated times, 2.0 mL aliquots were transferred to a centrifugal filter with a 3 kDa nominal molecular weight cutoff (Centricon YM-3 from Millipore) and spun until >1.5 mL of filtrate had accumulated. The timed filtrates and the original solution were analyzed for platinum by ICP-OES. The percent of small Pt species released was determined using the formula: ((ppm Pt in filtrate)/(ppm Pt in stock solution)) X 100.
# [2] = Table 2. Comparison of representative compounds C1-C13 of this invention versus carboplatin.
# Text: Table printed on a drawing sheet, FIGURE 15
# Title: Table 2. Comparison of representative compounds C1-C13 of this invention versus carboplatin.
# The patent's description of the figure: FIG. 15 is Table 2.
# First reader's note: Relative TGI is an in-vivo tumor growth inhibition class relative to carboplatin; C2, C3 and C5 are printed with 'Ama-Pt' (hyphen) instead of 'Ama=Pt'.
# [3] = Maximum tolerated dosage used in the B16F10 murine melanoma model; assay type: in vivo, C57BL/6 mice; details: mice
# Method: C57BL/6 mice (10 animals per compound treatment group) were dosed with the amount of compound indicated. The mice were inoculated subcutaneously in the right rear flank with 10^6 B16F10 murine melanoma cells. Beginning at day 6 post-implantation, tumor size was measured daily using calipers under light Methfurane anesthesia. The mass of the resulting tumor in milligrams was estimated using the formula W^2(L)/2 where W is the length of the shorter tumor dimension and L is the length of the longer dimension. Treatment was commenced when the tumor was 50-75 mg or larger. Each animal was followed individually so that Day 1 of treatment for each animal was the day on which that animal's tumor reached the appropriate size. The test compounds were administered […] through the tail vein using a volume of 0.2-0.3 mL per 20 grams body weight. The animals were observed and weighed daily prior to dosing to establish the proper dosing volume for that day and such was continued until the end of the study. […]
# [4] = Platinum release from PBS (percent small Pt species released from polymer-platinum conjugate); assay type: physicochemical
# [5] = system: B16F10 murine melanoma cells; experiment: B16F10 murine melanoma tumor growth inhibition in C57BL/6 mice; assay type: in vivo; details: each compound at its MTD (20 mgPt/kg vs. 50 mgPt/Kg), groups of ten mice
# Method: C57BL/6 mice (10 animals per compound treatment group) were dosed with the amount of compound indicated. The mice were inoculated subcutaneously in the right rear flank with 10^6 B16F10 murine melanoma cells. Beginning at day 6 post-implantation, tumor size was measured daily using calipers under light Methfurane anesthesia. The mass of the resulting tumor in milligrams was estimated using the formula W^2(L)/2 where W is the length of the shorter tumor dimension and L is the length of the longer dimension. Treatment was commenced when the tumor was 50-75 mg or larger. Each animal was followed individually so that Day 1 of treatment for each animal was the day on which that animal's tumor reached the appropriate size. The test compounds were administered […] through the tail vein using a volume of 0.2-0.3 mL per 20 grams body weight. The animals were observed and weighed daily prior to dosing to establish the proper dosing volume for that day and such was continued until the end of the study.
# Using the above procedure, a number of exemplary compounds of this invention were compared to carboplatin. […]
Substance,% Pt Release ([1]; 3 h) [%],% Pt Release ([1]; 24 h) [%],also measured
"Poly(HPMA)-GG-Asp=Pt=1R,2R-DACH [54b]",3.20,10.68,
p(HMPA)-GFLG-Ama=Pt=DACH [C2] [listing 1 of 2 here],,,Pt release (% at 24 h) [2]: 2.6 % at 24 h
p(HMPA)-GFLG-Ama=Pt=DACH [C2] [listing 2 of 2 here],,,maximum tolerated dosage (MTD) [3]: 50 mgPt/kg
poly(HPMA)-GFLG-Asp=Pt(NH3)2 [60a],1.95,5.85,
poly(HPMA)-GFLG-C3-Sulf-Ama=Pt(NH3)2 [75a],3.02,5.44,
poly(HPMA)-GG-Ama=Pt(NH3)2 [53a],1.4,4.6,
"poly(HPMA)-GG-Ama=Pt=1R,2R-DACH [53b]",1.3,5.5,
poly(HPMA)-GG-Asp=Pt(NH3)2 [54a],,,Pt release in PBS at 38.C ([4]; 3 hr): 3.92%; Pt release in PBS at 38.C ([4]; 24 hr): 11.02%
"poly(HPMA)-GGG-Ama=Pt=1R, 2R-DACH [C13] [listing 1 of 2 here]",,,Pt release (% at 24 h) [2]: 3.6 % at 24 h
"poly(HPMA)-GGG-Ama=Pt=1R, 2R-DACH [C13] [listing 2 of 2 here]",,,"delay in tumor growth, C13 versus C2 (FIG. 14) [5]: prolonged delay in tumor growth compared to compound C2; maximum tolerated dosage (MTD) [3]: 20 mgPt/kg"
poly(HPMA)-GGGG-Ama=PtDACH [57b],0.972,3.173,
